We go through one substance from PMC8390549.

The test concerns the target N-terminal DYKDDDK-tagged mouse Tim-3 (T-cell immunoglobulin mucin domain-3) with the VN-173 portion of the Venus fluorophore at the C terminus (Tim-3-VN) (UniProt Q8VIM0). Briefly: bimolecular fluorescence complementation (BiFC). To be noted: HeLa CD4+ cells, fixed 24 h after transfection; BiFC intensity normalized to Nef expression (HA staining); 3 independent repeats, 30 cells total; parent: est. 1.1; read off a plot.
Chain of UniProt Q8VIM0 (Q8VIM0 20-281): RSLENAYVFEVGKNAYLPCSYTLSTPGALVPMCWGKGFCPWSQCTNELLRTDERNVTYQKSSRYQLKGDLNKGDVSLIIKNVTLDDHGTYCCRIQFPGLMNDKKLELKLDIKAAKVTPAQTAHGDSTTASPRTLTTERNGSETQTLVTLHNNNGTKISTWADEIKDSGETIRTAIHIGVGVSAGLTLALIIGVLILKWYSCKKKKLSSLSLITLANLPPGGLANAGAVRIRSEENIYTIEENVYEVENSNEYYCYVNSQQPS

Take “HIV-1 NL4-3 Nef fused to a C-terminal HA tag and the VC-155 portion of the Venus fluorophore (Nef-HA-VC) L164A; L165A”: the response came to 0.42 BiFC/Nef IF.
